Measured values: US20120165204A1

Experiments:
[1] = target: CRIB domain of PAK1 (residues 65-150, extended CRIB domain) with C-terminal 6x Histidine tag (UniProt Q13153); experiment: ITC at 25 °C, PA-Rac1 mutant injected into PAK1 CRIB (10 µM), experiment 1; column head prints 'mM', paragraph 152 and the legend of FIG. 3 give µM / nM
[2] = target: CRIB domain of PAK1 (residues 65-150, extended CRIB domain) with C-terminal 6x Histidine tag (UniProt Q13153); experiment: ITC at 25 °C, experiment 2; design: unit not given here
[3] = target: CRIB domain of PAK1 (residues 65-150, extended CRIB domain) with C-terminal 6x Histidine tag (UniProt Q13153); experiment: ITC at 25 °C, experiment 1; design: unit not given here
[4] = target: CRIB domain of PAK1 (residues 65-150, extended CRIB domain) with C-terminal 6x Histidine tag (UniProt Q13153); experiment: ITC at 25 °C, experiment 2, stoichiometry of one-site model
[5] = target: CRIB domain of PAK1 (residues 65-150, extended CRIB domain) with C-terminal 6x Histidine tag (UniProt Q13153); experiment: ITC at 25 °C, experiment 1, stoichiometry of one-site model
[6] = target: CRIB domain of PAK1 (residues 65-150, extended CRIB domain) with C-terminal 6x Histidine tag (UniProt Q13153); experiment: ITC at 25 °C, PA-Rac1 mutant injected into PAK1 CRIB (10 µM), experiment 2; column head prints 'mM', paragraph 152 gives 220-280 nM
[7] = target: CRIB domain of PAK1 (residues 65-150, extended CRIB domain) with C-terminal 6x Histidine tag (UniProt Q13153); experiment: ITC at 25 °C, PA-Rac1 mutant injected into PAK1 CRIB (10 µM), experiment 2; column head prints 'mM', paragraph 152 gives µM
[8] = target: CRIB domain of PAK1 (residues 65-150, extended CRIB domain) with C-terminal 6x Histidine tag (UniProt Q13153); experiment: ITC at 25 °C, PA-Rac1 mutant injected into PAK1 CRIB (10 µM), experiment 1; column head prints 'mM', paragraph 152 and the legend of FIG. 3 give µM
[9] = target: CRIB domain of PAK1 (residues 65-150, extended CRIB domain) with C-terminal 6x Histidine tag (UniProt Q13153); experiment: ITC

In the case of “PA-Rac1 I539E (lit state mutant) with N-terminal six Histidine tag (from UniProt P63000 4-192)”, the Kd [1] is reported as 220 nM, the ΔH [2] is reported as -18000 and the ΔS [2] is reported as -31. The ΔS [3] was -30, the N [4] was 0.95 and the N [5] was 0.95. It also gave a Kd [6] of 280 nM.

Work on “PA-Rac1 C450A (dark state mutant) with N-terminal six Histidine tag (from UniProt P63000 4-192)” yielded a ΔH [2] of -5600, a ΔS [2] of 6.6 and a ΔH [3] of -7000. For the same substance, the ΔS [3] was 2.6, the Kd [7] was 3.1 µM and the N [4] was 0.64. It also gave a Kd [8] of 2300 nM, an N [5] of 1 and a fold weaker affinity than the lit state mimetic I539E [9] of 10 fold.
